Measurements: paper PMC3510454, “Elba, a novel developmentally regulated chromatin boundary factor is a hetero-tripartite DNA binding complex”

Experiments:
Elba1;Elba2;Elba3 [1] = molecular target: T1, Elba1;Elba2;Elba3 (Drosophila melanogaster?;Drosophila …, UniProt Q9VR17;Q9VQD6;Q9VR19 1-363;1-381;1-379, ||); assay: competition; 100-fold excess; EMSA: ~0.1 M KCl, 12.5-250 ug/ml poly(dI-dC):poly(dI-dC), 1/2 hr at room temperature, 4% acrylamide gel, otherwise as Aoki et al. 2008; affinity beads: HBB (10); conditions: protein: ivt;ivt;ivt; tags: none;none;none; copies: 1;1;1; label: none
T1 sequence 1: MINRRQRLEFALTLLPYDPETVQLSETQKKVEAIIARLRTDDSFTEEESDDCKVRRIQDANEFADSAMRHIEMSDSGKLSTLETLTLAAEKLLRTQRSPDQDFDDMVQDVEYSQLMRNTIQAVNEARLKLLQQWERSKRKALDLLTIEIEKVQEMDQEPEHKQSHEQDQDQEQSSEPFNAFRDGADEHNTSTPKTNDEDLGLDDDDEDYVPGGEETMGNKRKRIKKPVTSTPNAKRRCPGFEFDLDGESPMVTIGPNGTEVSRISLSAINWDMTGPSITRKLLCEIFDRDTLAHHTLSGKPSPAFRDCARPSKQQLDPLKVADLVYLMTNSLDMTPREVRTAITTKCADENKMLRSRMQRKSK
T1 sequence 2: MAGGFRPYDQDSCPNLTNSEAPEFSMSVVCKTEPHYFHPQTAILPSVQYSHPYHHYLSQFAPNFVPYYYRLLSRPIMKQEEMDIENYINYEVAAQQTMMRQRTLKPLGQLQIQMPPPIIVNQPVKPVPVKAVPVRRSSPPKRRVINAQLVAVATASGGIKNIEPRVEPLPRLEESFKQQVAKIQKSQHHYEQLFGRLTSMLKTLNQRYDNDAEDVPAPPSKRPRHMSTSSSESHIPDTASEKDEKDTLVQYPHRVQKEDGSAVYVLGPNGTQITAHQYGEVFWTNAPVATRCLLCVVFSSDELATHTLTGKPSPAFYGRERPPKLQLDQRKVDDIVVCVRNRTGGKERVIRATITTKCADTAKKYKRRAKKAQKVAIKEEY
T1 sequence 3: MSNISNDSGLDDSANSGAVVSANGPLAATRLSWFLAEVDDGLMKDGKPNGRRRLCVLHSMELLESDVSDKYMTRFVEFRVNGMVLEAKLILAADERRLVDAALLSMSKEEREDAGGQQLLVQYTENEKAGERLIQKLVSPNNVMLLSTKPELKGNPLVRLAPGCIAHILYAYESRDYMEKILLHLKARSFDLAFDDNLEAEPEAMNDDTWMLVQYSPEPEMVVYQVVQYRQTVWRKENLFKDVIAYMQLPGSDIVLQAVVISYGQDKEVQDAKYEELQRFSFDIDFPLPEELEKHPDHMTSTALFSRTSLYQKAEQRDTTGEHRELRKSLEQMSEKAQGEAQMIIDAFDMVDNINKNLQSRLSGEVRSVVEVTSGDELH

Elba1;Elba2;Elba3 [2] = molecular target: T1, Elba1;Elba2;Elba3; assay: EMSA; EMSA: ~0.1 M KCl, 12.5-250 ug/ml poly(dI-dC):poly(dI-dC), 1/2 hr at room temperature, 4% acrylamide gel, otherwise as Aoki et al. 2008; affinity beads: HBB (10); conditions: protein: ivt;ivt;ivt; tags: none;none;none; copies: 1;1;1
[3] = molecular target: T2, FLAG-Elba1F;FLAG-Elba2F;FLAG-Elba3F (Drosophila melanogaster?;Drosophila …, UniProt Q9VR17;Q9VQD6;Q9VR19 1-363;1-381;1-379, ||); assay: as above; conditions: protein: ivt;ivt;ivt; tags: N-terminal FLAG;N-terminal FLAG;N-terminal FLAG; copies: 1;1;1
T2 sequence 1: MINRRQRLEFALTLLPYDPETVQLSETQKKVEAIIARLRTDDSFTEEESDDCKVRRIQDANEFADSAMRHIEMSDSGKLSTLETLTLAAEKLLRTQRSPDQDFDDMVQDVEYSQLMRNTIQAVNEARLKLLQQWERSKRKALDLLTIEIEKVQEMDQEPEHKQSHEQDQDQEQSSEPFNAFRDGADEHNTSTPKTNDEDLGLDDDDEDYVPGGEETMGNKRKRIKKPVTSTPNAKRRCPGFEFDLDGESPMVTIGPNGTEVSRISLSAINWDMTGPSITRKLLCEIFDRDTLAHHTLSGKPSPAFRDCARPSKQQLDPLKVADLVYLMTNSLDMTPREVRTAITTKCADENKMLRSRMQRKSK
T2 sequence 2: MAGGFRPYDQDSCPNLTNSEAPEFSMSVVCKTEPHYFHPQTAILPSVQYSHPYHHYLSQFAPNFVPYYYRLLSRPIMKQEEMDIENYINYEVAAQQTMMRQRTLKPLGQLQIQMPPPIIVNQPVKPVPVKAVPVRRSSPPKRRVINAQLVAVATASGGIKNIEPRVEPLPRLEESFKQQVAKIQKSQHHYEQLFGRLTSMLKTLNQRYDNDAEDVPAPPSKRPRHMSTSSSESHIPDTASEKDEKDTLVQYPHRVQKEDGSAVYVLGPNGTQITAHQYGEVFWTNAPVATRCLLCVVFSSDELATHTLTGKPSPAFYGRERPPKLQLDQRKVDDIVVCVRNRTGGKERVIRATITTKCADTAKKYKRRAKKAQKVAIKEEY
T2 sequence 3: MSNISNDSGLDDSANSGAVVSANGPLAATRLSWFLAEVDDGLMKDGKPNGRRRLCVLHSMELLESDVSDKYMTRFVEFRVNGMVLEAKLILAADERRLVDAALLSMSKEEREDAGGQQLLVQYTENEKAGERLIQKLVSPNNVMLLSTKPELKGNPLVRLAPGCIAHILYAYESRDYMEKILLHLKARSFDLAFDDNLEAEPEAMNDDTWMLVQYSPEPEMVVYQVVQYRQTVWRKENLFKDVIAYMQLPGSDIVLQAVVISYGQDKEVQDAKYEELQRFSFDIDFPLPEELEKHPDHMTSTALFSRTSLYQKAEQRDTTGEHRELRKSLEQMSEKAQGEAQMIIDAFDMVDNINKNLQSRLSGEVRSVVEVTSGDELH

[4] = molecular target: T3, GST-Elba1 BEN;GST-Elba2 BEN (Drosophila melanogaster?;Drosophila …, UniProt Q9VR17;Q9VQD6 255-363;268-381, |); assay: as above; conditions: protein: ivt;ivt; tags: N-terminal FLAG and GST;N-terminal FLAG and GST; copies: 1;1
T3 sequence 1: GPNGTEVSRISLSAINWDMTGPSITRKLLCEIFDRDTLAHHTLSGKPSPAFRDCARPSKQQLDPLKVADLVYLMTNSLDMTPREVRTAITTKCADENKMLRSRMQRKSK
T3 sequence 2: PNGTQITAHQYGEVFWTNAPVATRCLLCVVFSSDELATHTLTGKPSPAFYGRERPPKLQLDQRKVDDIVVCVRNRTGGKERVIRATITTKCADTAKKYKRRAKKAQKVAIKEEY

[5] = molecular target: T4, GST-Elba1F;GST-Elba2F;FLAG-Elba3F (Drosophila melanogaster?;Drosophila …, UniProt Q9VR17;Q9VQD6;Q9VR19 1-363;1-381;1-379, ||); assay: EMSA; supershift by Elba3; EMSA: ~0.1 M KCl, 12.5-250 ug/ml poly(dI-dC):poly(dI-dC), 1/2 hr at room temperature, 4% acrylamide gel, otherwise as Aoki et al. 2008; affinity beads: HBB (10); conditions: protein: ivt;ivt;ivt; tags: N-terminal FLAG and GST;N-terminal FLAG and GST;N-terminal FLAG; copies: 1;1;1
T4 sequence 1: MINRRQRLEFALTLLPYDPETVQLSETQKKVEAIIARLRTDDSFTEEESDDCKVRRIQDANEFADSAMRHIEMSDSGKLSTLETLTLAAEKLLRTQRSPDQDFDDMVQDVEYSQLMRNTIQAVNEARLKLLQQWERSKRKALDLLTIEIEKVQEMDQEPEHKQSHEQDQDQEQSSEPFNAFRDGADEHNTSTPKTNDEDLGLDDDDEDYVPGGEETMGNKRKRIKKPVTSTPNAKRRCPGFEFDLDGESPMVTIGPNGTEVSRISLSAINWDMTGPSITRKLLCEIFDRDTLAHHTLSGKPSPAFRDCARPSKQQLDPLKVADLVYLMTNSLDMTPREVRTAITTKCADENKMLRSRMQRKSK
T4 sequence 2: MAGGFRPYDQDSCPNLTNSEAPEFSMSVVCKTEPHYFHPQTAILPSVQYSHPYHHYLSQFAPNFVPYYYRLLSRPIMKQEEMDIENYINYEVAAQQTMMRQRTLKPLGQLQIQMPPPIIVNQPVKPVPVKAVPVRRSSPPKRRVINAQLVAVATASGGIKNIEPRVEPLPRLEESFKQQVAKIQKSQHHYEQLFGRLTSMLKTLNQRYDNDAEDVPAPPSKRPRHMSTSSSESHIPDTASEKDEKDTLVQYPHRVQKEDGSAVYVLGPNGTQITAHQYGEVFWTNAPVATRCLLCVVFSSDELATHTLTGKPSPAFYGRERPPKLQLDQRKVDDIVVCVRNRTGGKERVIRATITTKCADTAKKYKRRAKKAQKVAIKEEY
T4 sequence 3: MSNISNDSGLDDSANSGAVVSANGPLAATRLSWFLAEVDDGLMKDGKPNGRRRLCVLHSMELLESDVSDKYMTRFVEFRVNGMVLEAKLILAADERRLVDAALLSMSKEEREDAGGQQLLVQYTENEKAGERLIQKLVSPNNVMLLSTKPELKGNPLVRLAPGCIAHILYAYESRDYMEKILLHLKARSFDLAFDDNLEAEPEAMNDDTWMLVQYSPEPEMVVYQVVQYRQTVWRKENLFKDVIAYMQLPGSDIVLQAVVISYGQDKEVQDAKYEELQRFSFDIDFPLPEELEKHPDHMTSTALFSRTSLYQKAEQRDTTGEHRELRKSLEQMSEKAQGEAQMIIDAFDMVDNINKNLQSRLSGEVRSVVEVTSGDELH

GST-Elba1F;GST-Elba2F = molecular target: T5, GST-Elba1F;GST-Elba2F (Drosophila melanogaster?;Drosophila …, UniProt Q9VR17;Q9VQD6 1-363;1-381, |); assay: EMSA; co-translated; EMSA: ~0.1 M KCl, 12.5-250 ug/ml poly(dI-dC):poly(dI-dC), 1/2 hr at room temperature, 4% acrylamide gel, otherwise as Aoki et al. 2008; affinity beads: HBB (10); conditions: protein: ivt;ivt; tags: N-terminal FLAG and GST;N-terminal FLAG and GST; copies: 1;1
T5 sequence 1: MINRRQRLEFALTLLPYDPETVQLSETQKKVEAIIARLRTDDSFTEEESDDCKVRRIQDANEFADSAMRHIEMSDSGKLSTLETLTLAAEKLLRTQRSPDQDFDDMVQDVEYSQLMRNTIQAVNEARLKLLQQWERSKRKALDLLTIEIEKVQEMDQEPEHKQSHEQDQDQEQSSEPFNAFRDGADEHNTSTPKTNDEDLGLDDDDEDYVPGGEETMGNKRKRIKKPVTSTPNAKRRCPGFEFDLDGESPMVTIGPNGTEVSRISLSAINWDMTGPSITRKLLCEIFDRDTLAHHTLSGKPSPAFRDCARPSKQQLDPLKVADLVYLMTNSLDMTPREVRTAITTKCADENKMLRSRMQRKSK
T5 sequence 2: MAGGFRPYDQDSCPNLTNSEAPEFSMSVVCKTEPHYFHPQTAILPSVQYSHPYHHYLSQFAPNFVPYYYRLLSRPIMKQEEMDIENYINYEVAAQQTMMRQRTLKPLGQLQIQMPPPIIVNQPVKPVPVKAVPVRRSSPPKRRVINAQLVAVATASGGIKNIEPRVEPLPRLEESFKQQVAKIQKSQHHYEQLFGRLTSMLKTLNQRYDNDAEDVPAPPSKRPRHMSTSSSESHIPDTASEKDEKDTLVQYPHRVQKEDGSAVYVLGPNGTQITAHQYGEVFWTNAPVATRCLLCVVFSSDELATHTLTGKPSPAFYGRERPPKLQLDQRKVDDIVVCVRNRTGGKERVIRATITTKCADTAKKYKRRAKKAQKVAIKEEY

B1: M6 oligo (dsDNA)
DNA 1: TGCAGCGCCCAATAAGCAAATGTACGC
DNA 2: GCGTACATTTGCTTATTGGGCGCTGCA
modifications: 3-bp substitution
Q: Does B1 bind (Elba1;Elba2;Elba3 [1])?
A: Result: binds

B2: Elba probe 27 bp (WT) (dsDNA)
DNA 1: TGCAGCGCCCAATAAGCAAATGGCAGC
DNA 2: GCTGCCATTTGCTTATTGGGCGCTGCA
Q: Does B2 bind (Elba1;Elba2;Elba3 [2])?
A: Result: binds

Q: Does B2 bind [3]?
A: Result: binds

Q: Does B2 bind [4]?
A: Result: no binding

Q: Does B2 bind [5]?
A: Result: binds

Q: Does B2 bind (GST-Elba1F;GST-Elba2F)?
A: Result: binds
